From patent US20120316071A1 (published 2012)

What was measured:
[1] = molecular target: T1, rHuman IGF-1 sR, (IGF-1 sR), CF (R&D Systems Cat#391-GR) (human, UniProt P08069 31-932); experiment: ECL multispot (MSD) assay; antigen spotted on plate, Fab in solution;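 also: purified Fab incubated 1 hour at 20 °C in 1% BSA TBST on antigen-coated wells, detected with TAG antibody, ECL read on Sector Imager 2400, compared to each well's blank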
T1 construct: Bought soluble receptor; also called insulin-like growth factor-1 soluble receptor

[2] = molecular target: T2, rHuman Notch-1/Fc Chimera, CF (R&D Systems Cat#3647-TK) (human, UniProt P46531 19-526); experiment: as above
T2 construct: Bought protein; Fc part of the bought chimera not given

[3] = molecular target: T3, rHuman EGF R/Fc Chimera, CF (R&D Systems Cat#344-ER) (human, UniProt P00533 25-645); experiment: as above
T3 construct: Bought protein; also called epidermal growth factor receptor; Fc part of the bought chimera not given

[4] = molecular target: T4, rHuman Erythropoietin R/Fc Chimera, CF (R&D Systems Cat#963-ER) (human, UniProt P19235 25-250); experiment: as above
T4 construct: Bought protein; also called EPO R; EPO R/Fc; Fc part of the bought chimera not given
T4 sequence (looked up): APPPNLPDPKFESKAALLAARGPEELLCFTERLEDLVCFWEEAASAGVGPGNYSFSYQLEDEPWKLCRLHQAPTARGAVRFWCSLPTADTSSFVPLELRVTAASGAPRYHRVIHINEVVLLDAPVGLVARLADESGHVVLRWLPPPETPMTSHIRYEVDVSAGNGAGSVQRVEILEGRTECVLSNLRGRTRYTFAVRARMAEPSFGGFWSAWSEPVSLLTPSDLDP

[5] = molecular target: T5, rHuman CD44/Fc Chimera, CF (R&D Systems Cat#3660-CD) (human, UniProt P16070 21-220); experiment: as above
T5 construct: Bought protein; Fc part of the bought chimera not given

[6] = molecular target: T6, rHuman ErbB2/Fc Chimera, CF (R&D Systems Cat#1129-ER) (human, UniProt P04626 23-652); experiment: as above
T6 construct: Bought protein; also called human epidermal growth factor 2 receptor; Fc part of the bought chimera not given

[7] = molecular target: T7, rHuman HGF R/c-MET/Fc Chimera, CF (R&D Systems Cat#358-MT/CF) (human, UniProt P08581 25-932); experiment: as above
T7 construct: Bought protein; also called HGF R/Fc; hepatocyte growth factor receptor; Fc part of the bought chimera not given
T7 sequence (P08581 25-932, change not shown): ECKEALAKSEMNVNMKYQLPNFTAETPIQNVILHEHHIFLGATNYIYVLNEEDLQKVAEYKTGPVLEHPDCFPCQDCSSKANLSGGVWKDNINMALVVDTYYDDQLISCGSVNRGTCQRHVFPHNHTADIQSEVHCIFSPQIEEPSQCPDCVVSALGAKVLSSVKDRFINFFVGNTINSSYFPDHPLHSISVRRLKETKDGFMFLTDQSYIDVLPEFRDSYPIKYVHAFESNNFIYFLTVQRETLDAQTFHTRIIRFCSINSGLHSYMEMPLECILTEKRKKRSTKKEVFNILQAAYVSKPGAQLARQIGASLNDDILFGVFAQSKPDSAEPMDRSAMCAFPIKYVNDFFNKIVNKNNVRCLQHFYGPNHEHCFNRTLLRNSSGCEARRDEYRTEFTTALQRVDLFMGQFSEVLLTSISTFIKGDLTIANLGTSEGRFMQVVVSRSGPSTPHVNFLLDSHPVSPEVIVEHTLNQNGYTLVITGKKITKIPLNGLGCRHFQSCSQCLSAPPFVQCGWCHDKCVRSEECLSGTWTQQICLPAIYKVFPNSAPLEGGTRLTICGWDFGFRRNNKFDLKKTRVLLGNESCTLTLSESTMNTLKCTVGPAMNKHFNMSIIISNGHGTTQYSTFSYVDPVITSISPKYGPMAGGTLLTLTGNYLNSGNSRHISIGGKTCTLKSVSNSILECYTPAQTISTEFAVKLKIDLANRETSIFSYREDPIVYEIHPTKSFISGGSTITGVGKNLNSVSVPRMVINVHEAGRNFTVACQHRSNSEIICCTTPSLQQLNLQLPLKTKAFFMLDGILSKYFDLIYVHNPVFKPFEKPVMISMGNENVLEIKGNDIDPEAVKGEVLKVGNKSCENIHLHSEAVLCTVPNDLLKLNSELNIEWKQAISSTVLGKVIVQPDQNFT

[8] = molecular target: T8, rHuman P-Cadherin/Fc Chimera, CF (R&D Systems Cat#861-PC) (human, UniProt P22223 108-654); experiment: as above
T8 construct: Bought protein; Fc part of the bought chimera not given

[9] = molecular target: T9, Recombinant Human DLL4 (R&D Systems Cat#1506-D4/CF) (human, UniProt Q9NR61 27-524); experiment: as above
T9 construct: Bought recombinant protein; also called delta-like protein 4; rHuman DLL4

[10] = molecular target: T10, Recombinant Human DLL4 (delta-like protein 4) (human, UniProt Q9NR61 27-524); experiment: ELISA, DLL4 coated on plate, Fab at 0 nM (no-Fab background, first 0 row)
T10 construct: Bought recombinant human DLL4 (R&D Systems Cat#1506-D4/CF); also called rHuman DLL4; Delta-like 4

[11] = molecular target: T10, Recombinant Human DLL4 (delta-like …); experiment: ELISA, DLL4 coated on plate, Fab at 400 nM
[12] = molecular target: T10, Recombinant Human DLL4 (delta-like …); experiment: ELISA, DLL4 coated on plate, Fab at 200 nM
[13] = molecular target: T10, Recombinant Human DLL4 (delta-like …); experiment: ELISA, DLL4 coated on plate, Fab at 100 nM
[14] = molecular target: T10, Recombinant Human DLL4 (delta-like …); experiment: ELISA, DLL4 coated on plate, Fab at 0 nM (no-Fab background, second 0 row)
[15] = molecular target: T10, Recombinant Human DLL4 (delta-like …); experiment: ELISA, DLL4 coated on plate, Fab at 25 nM (second 25 nM row)
[16] = molecular target: T10, Recombinant Human DLL4 (delta-like …); experiment: ELISA, DLL4 coated on plate, Fab at 50 nM
[17] = molecular target: T10, Recombinant Human DLL4 (delta-like …); experiment: ELISA, DLL4 coated on plate, Fab at 25 nM (first 25 nM row)

B1: Fab VH1-46_IGHD6-6*01_IGHJ1*01 S102A/S103P/S104F (APF) & L6_IGKJ1*01 S30W (Fab, V domains shown)
VH: QVQLVQSGAEVKKPGASVKVSCKASGYTFTSYYMHWVRQAPGQGLEWMGIINPSGGSTSYAQKFQGRVTMTRDTSTSTVYMELSSLRSEDTAVYYCAREEYAPFSAEYFQHWGQGTLVTVSS
VL: EIVLTQSPATLSLSPGERATLSCRASQSVWSYLAWYQQKPGQAPRLLIYDASNRATGIPARFSGSGSGTDFTLTISSLEPEDFAVYYCQQRSNWPPWTFGQGTKVEIKR
notes: Tested as Fab made in E. coli; The heavy chain vector (Plasmid A) adds CH1 with His and Flag tags, the kappa vector (Plasmid C) adds CL kappa; also called APF / S30W
[1]
  ECL signal: 157 ECL signal
[2]
  ECL signal: 105 ECL signal
[3]
  ECL signal: 132 ECL signal
[4]
  ECL signal: 30 ECL signal
[5]
  ECL signal: 186 ECL signal
[6]
  ECL signal: 73 ECL signal
[7]
  ECL signal: 62 ECL signal
[8]
  ECL signal: 39 ECL signal
[9]
  ECL signal: 791 ECL signal

B2: Fab VH1-46_IGHD6-6*01_IGHJ1*01 S102A/S103P/S104F (APF) & L6_IGKJ1*01 (Fab, V domains shown)
VH: QVQLVQSGAEVKKPGASVKVSCKASGYTFTSYYMHWVRQAPGQGLEWMGIINPSGGSTSYAQKFQGRVTMTRDTSTSTVYMELSSLRSEDTAVYYCAREEYAPFSAEYFQHWGQGTLVTVSS
VL: not shown
notes: Tested as Fab made in E. coli; The heavy chain vector (Plasmid A) adds CH1 with His and Flag tags, the kappa vector (Plasmid C) adds CL kappa; also called APF / parent; H:APF & L:wt
[1]
  ECL signal: 217 ECL signal
[2]
  ECL signal: 135 ECL signal
[3]
  ECL signal: 161 ECL signal
[4]
  ECL signal: 105 ECL signal
[5]
  ECL signal: 66 ECL signal
[6]
  ECL signal: 61 ECL signal
[7]
  ECL signal: 86 ECL signal
[8]
  ECL signal: 117 ECL signal
[9]
  ECL signal: 803 ECL signal

B3: Fab VH1-46_IGHD6-6*01_IGHJ1*01 S102A/S103P/S104F (APF) & L6_IGKJ1*01 S30L (Fab, V domains shown)
VH: QVQLVQSGAEVKKPGASVKVSCKASGYTFTSYYMHWVRQAPGQGLEWMGIINPSGGSTSYAQKFQGRVTMTRDTSTSTVYMELSSLRSEDTAVYYCAREEYAPFSAEYFQHWGQGTLVTVSS
VL: EIVLTQSPATLSLSPGERATLSCRASQSVLSYLAWYQQKPGQAPRLLIYDASNRATGIPARFSGSGSGTDFTLTISSLEPEDFAVYYCQQRSNWPPWTFGQGTKVEIKR
notes: Tested as Fab made in E. coli; The heavy chain vector (Plasmid A) adds CH1 with His and Flag tags, the kappa vector (Plasmid C) adds CL kappa; also called APF / S30L
[1]
  ECL signal: 193 ECL signal
[2]
  ECL signal: 296 ECL signal
[3]
  ECL signal: 288 ECL signal
[4]
  ECL signal: 259 ECL signal
[5]
  ECL signal: 240 ECL signal
[6]
  ECL signal: 244 ECL signal
[7]
  ECL signal: 250 ECL signal
[8]
  ECL signal: 260 ECL signal
[9]
  ECL signal: 1630 ECL signal

B4: Fab VH1-46_IGHD6-6*01_IGHJ1*01 S102A/S103P/S104F (APF) & L6_IGKJ1*01 S30R (Fab, V domains shown)
VH: QVQLVQSGAEVKKPGASVKVSCKASGYTFTSYYMHWVRQAPGQGLEWMGIINPSGGSTSYAQKFQGRVTMTRDTSTSTVYMELSSLRSEDTAVYYCAREEYAPFSAEYFQHWGQGTLVTVSS
VL: EIVLTQSPATLSLSPGERATLSCRASQSVRSYLAWYQQKPGQAPRLLIYDASNRATGIPARFSGSGSGTDFTLTISSLEPEDFAVYYCQQRSNWPPWTFGQGTKVEIKR
notes: Tested as Fab made in E. coli; The heavy chain vector (Plasmid A) adds CH1 with His and Flag tags, the kappa vector (Plasmid C) adds CL kappa; also called APF / S30R
[1]
  ECL signal: 86 ECL signal
[2]
  ECL signal: 155 ECL signal
[3]
  ECL signal: 140 ECL signal
[4]
  ECL signal: 87 ECL signal
[5]
  ECL signal: 89 ECL signal
[6]
  ECL signal: 35 ECL signal
[7]
  ECL signal: 108 ECL signal
[8]
  ECL signal: 39 ECL signal
[9]
  ECL signal: 745 ECL signal

B5: Fab VH1-46_IGHD6-6*01_IGHJ1*01 S102A/S103P/S104F (APF) & L6_IGKJ1*01 S30T (Fab, V domains shown)
VH: QVQLVQSGAEVKKPGASVKVSCKASGYTFTSYYMHWVRQAPGQGLEWMGIINPSGGSTSYAQKFQGRVTMTRDTSTSTVYMELSSLRSEDTAVYYCAREEYAPFSAEYFQHWGQGTLVTVSS
VL: EIVLTQSPATLSLSPGERATLSCRASQSVTSYLAWYQQKPGQAPRLLIYDASNRATGIPARFSGSGSGTDFTLTISSLEPEDFAVYYCQQRSNWPPWTFGQGTKVEIKR
notes: Tested as Fab made in E. coli; The heavy chain vector (Plasmid A) adds CH1 with His and Flag tags, the kappa vector (Plasmid C) adds CL kappa; also called APF / S30T
[1]
  ECL signal: 204 ECL signal
[2]
  ECL signal: 127 ECL signal
[3]
  ECL signal: 274 ECL signal
[4]
  ECL signal: 207 ECL signal
[5]
  ECL signal: 229 ECL signal
[6]
  ECL signal: 243 ECL signal
[7]
  ECL signal: 297 ECL signal
[8]
  ECL signal: 195 ECL signal
[9]
  ECL signal: 1020 ECL signal

B6: Fab VH1-46_IGHD6-6*01_IGHJ1*01 S102A/S103P/S104F/H111F & L6_IGKJ1*01 S28H (Fab, V domains shown)
VH: QVQLVQSGAEVKKPGASVKVSCKASGYTFTSYYMHWVRQAPGQGLEWMGIINPSGGSTSYAQKFQGRVTMTRDTSTSTVYMELSSLRSEDTAVYYCAREEYAPFSAEYFQFWGQGTLVTVSS
VL: EIVLTQSPATLSLSPGERATLSCRASQHVSSYLAWYQQKPGQAPRLLIYDASNRATGIPARFSGSGSGTDFTLTISSLEPEDFAVYYCQQRSNWPPWTFGQGTKVEIKR
notes: Tested as a Fab; also called APFF & S28H
[10]
  ELISA signal: 0.01
[11]
  ELISA signal: 0.13
[12]
  ELISA signal: 0.14
[13]
  ELISA signal: 0.09
[14]
  ELISA signal: 0
[15]
  ELISA signal: 0.03
[16]
  ELISA signal: 0.05
[17]
  ELISA signal: 0.03

B7: Fab VH1-46_IGHD6-6*01_IGHJ1*01 S102A/S103P/S104F/H111F & L6_IGKJ1*01 S28N (Fab, V domains shown)
VH: QVQLVQSGAEVKKPGASVKVSCKASGYTFTSYYMHWVRQAPGQGLEWMGIINPSGGSTSYAQKFQGRVTMTRDTSTSTVYMELSSLRSEDTAVYYCAREEYAPFSAEYFQFWGQGTLVTVSS
VL: EIVLTQSPATLSLSPGERATLSCRASQNVSSYLAWYQQKPGQAPRLLIYDASNRATGIPARFSGSGSGTDFTLTISSLEPEDFAVYYCQQRSNWPPWTFGQGTKVEIKR
notes: Tested as a Fab; also called APFF & S28N
[10]
  ELISA signal: 0
[11]
  ELISA signal: 0.19
[12]
  ELISA signal: 0.17
[13]
  ELISA signal: 0.13
[14]
  ELISA signal: 0
[15]
  ELISA signal: 0.05
[16]
  ELISA signal: 0.07
[17]
  ELISA signal: 0.04

B8: Fab VH1-46_IGHD6-6*01_IGHJ1*01 S102A/S103P/S104F/H111F & L6_IGKJ1*01 S30D (Fab, V domains shown)
VH: QVQLVQSGAEVKKPGASVKVSCKASGYTFTSYYMHWVRQAPGQGLEWMGIINPSGGSTSYAQKFQGRVTMTRDTSTSTVYMELSSLRSEDTAVYYCAREEYAPFSAEYFQFWGQGTLVTVSS
VL: EIVLTQSPATLSLSPGERATLSCRASQSVDSYLAWYQQKPGQAPRLLIYDASNRATGIPARFSGSGSGTDFTLTISSLEPEDFAVYYCQQRSNWPPWTFGQGTKVEIKR
notes: Tested as a Fab; also called APFF & S30D
[10]
  ELISA signal: 0
[11]
  ELISA signal: 0.13
[12]
  ELISA signal: 0.11
[13]
  ELISA signal: 0.09
[14]
  ELISA signal: 0.01
[15]
  ELISA signal: 0.03
[16]
  ELISA signal: 0.06
[17]
  ELISA signal: 0.03

B9: Fab VH1-46_IGHD6-6*01_IGHJ1*01 S102A/S103P/S104F/H111F & L6_IGKJ1*01 S31H (Fab, V domains shown)
VH: QVQLVQSGAEVKKPGASVKVSCKASGYTFTSYYMHWVRQAPGQGLEWMGIINPSGGSTSYAQKFQGRVTMTRDTSTSTVYMELSSLRSEDTAVYYCAREEYAPFSAEYFQFWGQGTLVTVSS
VL: EIVLTQSPATLSLSPGERATLSCRASQSVSHYLAWYQQKPGQAPRLLIYDASNRATGIPARFSGSGSGTDFTLTISSLEPEDFAVYYCQQRSNWPPWTFGQGTKVEIKR
notes: Tested as a Fab; also called APFF & S31H
[10]
  ELISA signal: 0
[11]
  ELISA signal: 0.2
[12]
  ELISA signal: 0.11
[13]
  ELISA signal: 0.09
[14]
  ELISA signal: 0
[15]
  ELISA signal: 0.03
[16]
  ELISA signal: 0.05
[17]
  ELISA signal: 0.03
